Reference: US20110027820A1 (GEORGIA TECH RESEARCH, published 2011)

Target: T1, Gal4 DNA binding domain (DBD) fused to the RXR ligand binding domain (GBD:RXR) (yeast; human, UniProt P04386 1-147; P19793 203-462, limits assumed)
T1 construct: Expressed inside yeast (PJ69-4A or MaV103) from plasmid pGBDRXR; The order DBD then LBD follows the name GBD:RXR; also called wild-type GBD:RXR; product of pGBDRXR
Test: yeast two-hybrid type growth selection (chemical complementation), PJ69-4A on SC-Ade plates with 10^-5 M 9cRA
Procedure: The same colony was used for streaking on all the plates, ending with a SC plate to confirm efficient transfer of the cells to each plate. Both selective and non-selective plates were incubated at 30° C. for two days. Each set of genetic selection plates was replicated at least once.

B1: Gal4 activation domain (GAD) without a coactivator domain (other, yeast, UniProt P04386 768-881, looked up)
chain: ANFNQSGNIADSSLSFTFTNSSNGPNLITTQTNSQALSQPIASSNVHDNFMNNEITASKIDDGNNSKPLSPGWTDQTAYNAFGITTGMFNTTTMDDVYNYLFDDEDTPPNPKKE
notes: range 768-881; Control expressed from pGAD10; also called Gal4 AD only; product of pGAD10
  binding result: no binding
